# Measurements published in US20250084177A1 (HUAHUI HEALTH, published 2025).
# T1: hCD98 ECD-His6-Avi (human, UniProt P08195 105-529, biotinylated by BirA ligase on the Avi tag (form used in ELISA))
# T1 construct: also called hCD98 ECD-His6-Avi-Biotin; not shown: His6-Avi tag
# T1 sequence: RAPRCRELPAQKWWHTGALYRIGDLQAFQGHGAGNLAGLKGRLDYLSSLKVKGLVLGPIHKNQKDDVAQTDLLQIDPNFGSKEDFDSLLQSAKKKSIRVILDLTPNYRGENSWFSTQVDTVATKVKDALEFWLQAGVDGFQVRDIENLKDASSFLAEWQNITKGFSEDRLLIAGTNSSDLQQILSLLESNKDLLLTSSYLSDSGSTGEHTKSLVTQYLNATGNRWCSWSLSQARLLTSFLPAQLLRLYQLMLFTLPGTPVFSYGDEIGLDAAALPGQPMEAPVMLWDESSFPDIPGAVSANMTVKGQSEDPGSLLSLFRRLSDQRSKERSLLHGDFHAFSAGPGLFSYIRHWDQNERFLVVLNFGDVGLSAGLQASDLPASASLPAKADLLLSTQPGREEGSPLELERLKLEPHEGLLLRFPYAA
# T2: human CD98 (hCD98) on cells (human, UniProt P08195 2-529)
# T2 construct: also called CHO-hCD98; hCD98-expressing CHO cells
# T2 sequence: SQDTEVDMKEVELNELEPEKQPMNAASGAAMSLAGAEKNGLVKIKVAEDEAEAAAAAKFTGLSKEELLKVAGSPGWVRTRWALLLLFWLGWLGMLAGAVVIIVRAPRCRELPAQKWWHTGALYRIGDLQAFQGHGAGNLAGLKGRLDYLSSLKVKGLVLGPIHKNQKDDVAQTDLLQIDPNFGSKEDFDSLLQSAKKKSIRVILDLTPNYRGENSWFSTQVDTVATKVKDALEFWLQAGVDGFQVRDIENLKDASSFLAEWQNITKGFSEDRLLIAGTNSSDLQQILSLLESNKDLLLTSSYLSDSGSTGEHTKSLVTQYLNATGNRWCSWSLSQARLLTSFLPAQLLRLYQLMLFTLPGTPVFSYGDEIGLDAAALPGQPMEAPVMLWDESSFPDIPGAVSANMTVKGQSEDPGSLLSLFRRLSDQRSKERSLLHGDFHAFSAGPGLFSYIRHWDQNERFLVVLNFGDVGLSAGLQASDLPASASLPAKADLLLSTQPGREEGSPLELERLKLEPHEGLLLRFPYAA
# T3: mouse CD98 (mCD98) ECD (mouse, UniProt P10852 100-526)
# T3 construct: extracellular domain; By the methods the CD98 ECDs were His6-Avi-tagged; also called murine CD98
# T3 sequence (looked up): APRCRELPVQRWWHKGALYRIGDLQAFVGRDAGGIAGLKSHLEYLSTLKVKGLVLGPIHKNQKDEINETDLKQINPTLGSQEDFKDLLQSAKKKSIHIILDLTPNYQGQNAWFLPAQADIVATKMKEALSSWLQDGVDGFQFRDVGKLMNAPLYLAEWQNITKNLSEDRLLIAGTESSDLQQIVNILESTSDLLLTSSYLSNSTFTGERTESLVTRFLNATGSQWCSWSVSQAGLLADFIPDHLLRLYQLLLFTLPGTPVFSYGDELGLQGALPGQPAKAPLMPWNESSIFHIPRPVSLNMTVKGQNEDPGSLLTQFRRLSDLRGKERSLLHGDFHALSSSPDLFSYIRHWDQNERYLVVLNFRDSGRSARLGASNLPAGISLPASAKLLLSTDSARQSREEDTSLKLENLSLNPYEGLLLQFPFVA
# T4: HEK293T-mCD98 (Mus musculus, UniProt P10852)
# T4 construct: full length, on cells or tissue; Cell-surface counterpart of m7 (the soluble mCD98 ECD), as m5 is of m4; also called mouse CD98 (mCD98) on cells; CD98 of C57BL/6 kidney and leukocytes
# T4 sequence (CD98 heavy chain, looked up): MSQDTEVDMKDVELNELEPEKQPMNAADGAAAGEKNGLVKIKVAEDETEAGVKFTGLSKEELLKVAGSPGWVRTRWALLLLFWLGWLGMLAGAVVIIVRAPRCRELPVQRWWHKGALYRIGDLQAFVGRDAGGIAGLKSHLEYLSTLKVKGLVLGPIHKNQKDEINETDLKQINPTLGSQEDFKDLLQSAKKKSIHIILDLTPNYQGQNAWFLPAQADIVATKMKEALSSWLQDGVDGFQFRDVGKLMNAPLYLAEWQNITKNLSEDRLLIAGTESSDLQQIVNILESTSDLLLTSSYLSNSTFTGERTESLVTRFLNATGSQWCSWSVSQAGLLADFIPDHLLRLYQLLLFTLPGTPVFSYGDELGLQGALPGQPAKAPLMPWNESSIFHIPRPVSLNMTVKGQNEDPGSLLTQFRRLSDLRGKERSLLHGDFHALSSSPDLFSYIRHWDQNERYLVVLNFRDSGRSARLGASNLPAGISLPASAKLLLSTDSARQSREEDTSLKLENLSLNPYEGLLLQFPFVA
# B1: IGN523 (antibody, V domains shown)
# VH: QVQLVQSGAEVKKPGSSVKVSCKASGNAFTNYLIEWVRQAPGQGLEWMGVINPGSGITNYNEKFKGKATITADKSTSTAYMELSSLRSEDTAVYYCSGSANWFAYWGQGTLVTVSS
# VL: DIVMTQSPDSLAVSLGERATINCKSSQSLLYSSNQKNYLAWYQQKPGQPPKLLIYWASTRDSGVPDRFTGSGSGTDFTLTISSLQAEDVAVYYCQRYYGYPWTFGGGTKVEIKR
# B2: HN2-G9 (antibody, V domains shown)
# VH: QVQLVQSGAEVKKPGSSVKVSCKASGYTFTSYYMHWVRQAPGQGLEWMGIINPSGGSTSYAQKFQGRVTMTRDTSTSTVYMELSSLRSEDTAVYFCARGYCSGGRCYSDFQHWGQGTLVTVSS
# VL: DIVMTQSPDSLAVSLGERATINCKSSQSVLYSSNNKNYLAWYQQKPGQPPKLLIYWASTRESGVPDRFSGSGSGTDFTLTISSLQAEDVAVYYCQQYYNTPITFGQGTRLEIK
# B3: BC8 (antibody, V domains shown)
# VH: EVQLVESGGGVVQPGRSLRLSCAASGFTVSNNYMSWVRQAPGKGLEWVSVIYSGGKTYYADSAKGRFTISRDNSKNTVFLQMNSLRVEDTAVYYCARVSGLGWFDPWGQGTLVTVSS
# VL: not shown
# notes: human IgG1 format by the methods (detected with anti-human IgG); also called anti-mouse CD98 antibody BC8; mCD98-specific Ab
# B4: Ab8332 (antibody, V domains shown)
# VH: QVQLVQSGAEVKKPGASVKVSCKASGYTFTSYQMHWVRQAPGQGLEWMGIINPSGGSTSYAQKFQGRVTMTRDTSTSTVYMELSSLRSEDTAVYYCARGYEDSNTHQHPIFFDIWGQGTMVTVSS
# VL: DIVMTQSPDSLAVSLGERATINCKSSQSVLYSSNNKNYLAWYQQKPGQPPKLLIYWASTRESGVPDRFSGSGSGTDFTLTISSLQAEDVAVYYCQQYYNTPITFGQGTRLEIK
# notes: human IgG1 format by the methods
# B5: H15L54 (antibody, human IgG1, V domains shown)
# VH: QVQLVQSGAEVKKPGASVKVSCKASGYTFTSYQMHWVRQAPGQGLEWMGIINDKHGSTSYAQKFQGRVTMTRDTSTSTVYMELSSLRSEDTAVYYCARGYEDSNTHQHPIFFDIWGQGTMVTVSS
# VL: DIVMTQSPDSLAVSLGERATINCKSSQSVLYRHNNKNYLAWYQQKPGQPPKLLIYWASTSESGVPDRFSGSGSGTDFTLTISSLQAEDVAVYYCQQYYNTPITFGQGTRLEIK
# notes: human IgG1 format by the methods; also called pH-dependent anti-hCD98 antibody H15L54
# B6: S1-F4 (antibody, V domains shown)
# VH: QVQLVQSGAEVKKPGASVKVSCKASGYTFTSYYMHWVRQAPGQGLEWMGIINPSGGSTSYAQKFQGRVTMTRDTSTSTVYMELSSLRSEDTAVYYCARGYYDILTGSRPIFFDIWGQGTMVTVSS
# VL: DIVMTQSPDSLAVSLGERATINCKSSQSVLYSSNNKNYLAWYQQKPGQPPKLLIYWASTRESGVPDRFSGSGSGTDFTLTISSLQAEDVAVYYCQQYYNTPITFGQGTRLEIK
# notes: Obtained by VH chain shuffling of HN2-G9; also called anti-hCD98 antibody S1-F4
# B7: S1-F4 Y97E (antibody, V domains shown)
# VH: QVQLVQSGAEVKKPGASVKVSCKASGYTFTSYYMHWVRQAPGQGLEWMGIINPSGGSTSYAQKFQGRVTMTRDTSTSTVYMELSSLRSEDTAVYYCARGYEDILTGSRPIFFDIWGQGTMVTVSS
# VL: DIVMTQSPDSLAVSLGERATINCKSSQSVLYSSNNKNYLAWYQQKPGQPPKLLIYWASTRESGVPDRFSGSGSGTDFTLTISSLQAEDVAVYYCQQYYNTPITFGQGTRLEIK
# notes: S1-F4 with Y97E in HCDR3; also called S1-F4 VH Y97E
# B8: H15L1 (antibody, human IgG1, V domains shown)
# VH: QVQLVQSGAEVKKPGASVKVSCKASGYTFTSYQMHWVRQAPGQGLEWMGIINDKHGSTSYAQKFQGRVTMTRDTSTSTVYMELSSLRSEDTAVYYCARGYEDSNTHQHPIFFDIWGQGTMVTVSS
# VL: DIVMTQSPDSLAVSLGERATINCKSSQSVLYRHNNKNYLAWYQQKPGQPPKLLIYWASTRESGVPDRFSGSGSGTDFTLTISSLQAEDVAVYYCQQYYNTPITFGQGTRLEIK
# notes: as for B4
# B9: H15L35 (antibody, human IgG1, V domains shown)
# VH: QVQLVQSGAEVKKPGASVKVSCKASGYTFTSYQMHWVRQAPGQGLEWMGIINDKHGSTSYAQKFQGRVTMTRDTSTSTVYMELSSLRSEDTAVYYCARGYEDSNTHQHPIFFDIWGQGTMVTVSS
# VL: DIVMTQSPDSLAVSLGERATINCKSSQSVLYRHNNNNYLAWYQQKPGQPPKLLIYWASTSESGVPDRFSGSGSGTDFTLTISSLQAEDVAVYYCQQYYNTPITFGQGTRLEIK
# notes: as for B4
# Assays:
# hCD98 ECD-His6-Avi [1] = biological target: T1, hCD98 ECD-His6-Avi; experiment: SPR (Biacore T200), antibody captured, hCD98 ECD as analyte, 1:1 Langmuir model
# Method: (§1) Kinetic analysis of the bindings of anti-CD98 antibodies to the ECD of CD98, and the ECD of FcγRs were performed on a Biacore T200 instrument (Biacore, GE Healthcare). Anti-hFc Ab or protein A/G (Thermo Fisher Scientific) was covalently attached to the surface of a CM5 sensor chip using an amine coupling kit (GE Healthcare). Antibodies at optimal concentrations were captured on the chip and the analytes (CD98 or FcγRs) were then injected at 2-fold serial diluted concentrations. Binding kinetics were evaluated using a 1:1 Langmuir binding model. The ka, kd, and KD values were calculated using Biacore T200 evaluation software.
# hCD98 ECD-His6-Avi [2] = biological target: T1, hCD98 ECD-His6-Avi; experiment: SPR (Biacore T200), antibody captured, hCD98 ECD as analyte
# Method: as §1
# [3] = biological target: T2, human CD98 (hCD98) on cells; experiment: immunofluorescence on kidney sections of CD98 humanized mice (hCD98 ECD knock-in), FITC anti-human IgG secondary
# mouse CD98 (mCD98) ECD [4] = biological target: T3, mouse CD98 (mCD98) ECD; experiment: SPR (Biacore T200), antibody captured, mouse CD98 ECD as analyte, 1:1 Langmuir model
# Method: as §1
# hCD98 ECD-His6-Avi [5] = biological target: T1, hCD98 ECD-His6-Avi; experiment: ELISA at pH 6.5 on hCD98 ECD-His6-Avi-Biotin
# hCD98 ECD-His6-Avi [6] = biological target: T1, hCD98 ECD-His6-Avi; experiment: ELISA at pH 7.4 and pH 6.5 on hCD98 ECD-His6-Avi-Biotin
# hCD98 ECD-His6-Avi [7] = biological target: T1, hCD98 ECD-His6-Avi; experiment: ELISA at pH 7.4 on hCD98 ECD-His6-Avi-Biotin
# hCD98 ECD-His6-Avi [8] = biological target: T1, hCD98 ECD-His6-Avi; experiment: ELISA, EC50 ratio pH 7.4/6.5 against that of S1-F4 Y97E
# Method: (§2) For the ELISA-based analysis of antibody binding with antigen, biotinylated protein antigens were captured with streptavidin (Sigma-Aldrich) coated 96-well plates (Nunc, MaxiSorp™). Then, serially diluted antibodies were added, and detected by adding an HRP-labeled goat polyclonal anti-Human IgG Fc (Thermo Fisher Scientific).
# hCD98 ECD-His6-Avi [9] = biological target: T1, hCD98 ECD-His6-Avi; experiment: ELISA at pH 6.5, ratio of EC50 values against S1-F4 Y97E
# hCD98 ECD-His6-Avi [10] = biological target: T1, hCD98 ECD-His6-Avi; experiment: ELISA at pH 7.4 and pH 6.5 on hCD98 ECD
# hCD98 ECD-His6-Avi [11] = biological target: T1, hCD98 ECD-His6-Avi; experiment: ELISA at pH 6.5, biotinylated hCD98 ECD captured on streptavidin
# Method: as §2
# hCD98 ECD-His6-Avi [12] = biological target: T1, hCD98 ECD-His6-Avi; experiment: ELISA at pH 7.4, biotinylated hCD98 ECD captured on streptavidin, HRP anti-human IgG Fc
# Method: as §2
# hCD98 ECD-His6-Avi [13] = biological target: T1, hCD98 ECD-His6-Avi; experiment: ELISA at pH 6.5, biotinylated hCD98 ECD captured on streptavidin; pH 6.5
# Method: as §2
# HEK293T-mCD98 = biological target: T4, HEK293T-mCD98; experiment: FACS on leukocytes of C57BL/6 mice, FITC anti-human IgG secondary
# mouse CD98 (mCD98) ECD [14] = biological target: T3, mouse CD98 (mCD98) ECD; experiment: SPR (Biacore T200), antibody captured, CD98 ECD as analyte; table cells 'n.m.'
# Method: as §1
# hCD98 ECD-His6-Avi [15] = biological target: T1, hCD98 ECD-His6-Avi; experiment: SPR (Biacore T200), antibody captured, CD98 ECD as analyte, 1:1 Langmuir model
# Method: as §1
# hCD98 ECD-His6-Avi [16] = biological target: T1, hCD98 ECD-His6-Avi; experiment: ELISA at pH 7.4, biotinylated hCD98 ECD captured on streptavidin; pH 7.4
# Method: as §2
binder,measurement,setting,value
B1,Kd,hCD98 ECD-His6-Avi [1],0.722 nM
same,koff,hCD98 ECD-His6-Avi [1],0.000145 s⁻¹
same,kon,hCD98 ECD-His6-Avi [1],201000 M⁻¹ s⁻¹
B2,koff,hCD98 ECD-His6-Avi [1],0.102 s⁻¹
same,kon,hCD98 ECD-His6-Avi [1],787000 M⁻¹ s⁻¹
same,Kd,hCD98 ECD-His6-Avi [2],1290 nM
B3,binding result,[3],no binding (tested: 15 µg/ml)
same,Kd,mouse CD98 (mCD98) ECD [4],86.1 nM
same,koff,mouse CD98 (mCD98) ECD [4],0.00344 s⁻¹
same,kon,mouse CD98 (mCD98) ECD [4],40000 M⁻¹ s⁻¹
B4,EC50 (read off the curve),hCD98 ECD-His6-Avi [5],~0.1 nM
same,EC50 ratio (pH 7.4/6.5),hCD98 ECD-His6-Avi [6],50.7
same,EC50 (read off the curve),hCD98 ECD-His6-Avi [7],~5 nM
B5,fold higher binding pH-dependence than S1-F4 Y97E,hCD98 ECD-His6-Avi [8],~14 fold
same,fold higher binding activity at pH 6.5 than S1-F4 Y97E,hCD98 ECD-His6-Avi [9],~7 fold
same,EC50 ratio (pH 7.4/6.5),hCD98 ECD-His6-Avi [10],38
same,EC50,hCD98 ECD-His6-Avi [11],0.247 nM
same,EC50 (read off the curve),hCD98 ECD-His6-Avi [12],~5 nM
B6,EC50,hCD98 ECD-His6-Avi [13],0.059 nM
same,binding result,HEK293T-mCD98,no binding (tested: 10 µg/ml)
same,binding result,mouse CD98 (mCD98) ECD [14],no binding
same,Kd,hCD98 ECD-His6-Avi [15],58.2 nM
same,koff,hCD98 ECD-His6-Avi [15],0.0576 s⁻¹
same,kon,hCD98 ECD-His6-Avi [15],990000 M⁻¹ s⁻¹
same,EC50,hCD98 ECD-His6-Avi [16],0.046 nM
B7,EC50,hCD98 ECD-His6-Avi [13],1.69 nM
same,EC50 ratio (pH 7.4/6.5),hCD98 ECD-His6-Avi [10],2.7
same,EC50,hCD98 ECD-His6-Avi [16],4.53 nM
B8,EC50 ratio (pH 7.4/6.5),hCD98 ECD-His6-Avi [6],11.8
B9,EC50 ratio (pH 7.4/6.5),hCD98 ECD-His6-Avi [6],16
